Laboratory results published in patent US11685791B2, “Antibody binding specifically to N-terminal region of lysyl-tRNA synthetase exposed on cell membrane” (Zymedi Co., Ltd., priority 2017, dated 2023).

Key:
KRS 1-207 aa = biological target: T1, KRS 1-207 aa (Homo sapiens, UniProt Q15046); test: SPR (Biacore 2000) binding of IgGs to immobilized KRS; conditions: immobilized KRS 185 RU, antibody 6.25-100 nM
T1 construct: to the antigen (KRS 1-207 aa)
Description: The quantitative binding ability of the purified antibody proteins (N3 IgG and N5 IgG) to the antigen (KRS 1-207 aa) were measured using Biacore 2000 SPR (surface plasmon resonance) (GE healthcare, US) biosensor. After KRS was immobilized on a sensor chip (CM5, GE healthcare, US), antibody proteins (6.25-100 nM), which were serially diluted with HES buffer solution (10 mM HEPES, pH 7.4, 150 mM NaCl, 3 mM EDTA, 0.005% surfactant P20), were allowed to flow at a rate of 30 μl/min for 3 min, and 1 M NaCl/20 mM NaOH was allowed to flow at a rate of 30 μl/min for 3 min, thereby inducing the dissociation of proteins bound to the antigen. Mock IgG was used as control. Specific experiment conditions are as follows:
Immobilized level: 185 RU
Antibody: N3 IgG and N5 IgG
Running buffer: HBS-N buffer
Regeneration: 2 M NaCl, 20 mM NaOH (flow 30 ul/min 1 min)
The affinity was obtained from the kinetic rate constants (ka and kd) and equilibrium dissociation constants (KD) by using BIA evaluation ver. 3.2 software. FIGS. 6A-6B show SPR graph results of N3 IgG and N5 IgG, respectively. It was confirmed from FIGS. 6A-6B and Table 3 that N3 IgG and N5 IgG of the present invention has high specific binding ability to the KRS N-terminal region.

KRS = biological target: T2, KRS (Homo sapiens, UniProt Q15046); test: Western blotting and immunoprecipitation of converted IgGs; assay type: binding; conditions: HCT116 cell lysate
T2 construct: endogenous in cells; host or cells: HCT116
T2 sequence (Q15046 whole entry): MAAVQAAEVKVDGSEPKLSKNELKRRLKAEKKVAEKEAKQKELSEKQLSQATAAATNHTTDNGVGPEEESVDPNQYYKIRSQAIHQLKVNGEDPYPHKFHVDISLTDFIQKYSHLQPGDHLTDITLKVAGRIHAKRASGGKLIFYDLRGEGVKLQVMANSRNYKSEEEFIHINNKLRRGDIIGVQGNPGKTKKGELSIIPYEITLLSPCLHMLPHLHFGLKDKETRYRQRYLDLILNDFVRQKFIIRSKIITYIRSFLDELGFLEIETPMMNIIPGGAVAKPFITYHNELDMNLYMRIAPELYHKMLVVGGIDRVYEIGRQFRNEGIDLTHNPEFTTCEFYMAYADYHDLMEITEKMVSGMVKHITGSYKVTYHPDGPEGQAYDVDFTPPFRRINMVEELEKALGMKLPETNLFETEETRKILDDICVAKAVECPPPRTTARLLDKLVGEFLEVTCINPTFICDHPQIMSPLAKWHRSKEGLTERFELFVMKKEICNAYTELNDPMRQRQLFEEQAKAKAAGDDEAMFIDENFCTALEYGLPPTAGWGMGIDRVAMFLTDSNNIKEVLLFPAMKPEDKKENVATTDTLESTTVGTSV

[1] = biological target: T3, extracellularly exposed KRS N-terminal region (Homo sapiens, UniProt Q15046); test: Immunofluorescence staining of converted IgGs; assay type: cell-based; conditions: WT-KRS membrane localization induced by laminin treatment
T3 construct: expressed in transfected cells; host or cells: A549
T3 sequence (Q15046 whole entry): as above
Description: (§1) Immunofluorescence was performed to investigate whether the scFv clones selected in Example <1-5> actually bound to the KRS N-terminal region exposed on the cell membrane. In order to make a phenomenon in which KRS is exposed on the membrane, KRS-T52D mutant (active mutant) was used. […] After incubation for 24 h, the cells were incubated using serum-free media (RPMI 1640 media) at 37° C. for 1 h. Thereafter, the cells were treated with 10 μg/ml laminin (L2020; Sigma) and then incubated at 37° C. for 1 h.
(§2) The prepared samples were washed with PBS (4° C.), fixed by the treatment with 4% paraformaldehyde for 10 min, and then washed. The samples were blocked with CAS block for 10 min, and treated with the scFv and Myc antibodies for 2 h. Thereafter, the unbound antibodies were washed out, and incubated with secondary antibodies for 1 h in a dark room. DAPI staining was performed for 10 min before mounting.
(§3) To investigate whether the IgGs constructed in the present invention actually bound to the region of KRS exposed on the cell membrane, immunofluorescence was performed. Immunofluorescence staining was performed by the same method as described in Example <1-6> by using N3 IgG and N5 IgG as representatives.

[2] = biological target: T4, extracellularly exposed KRS N-terminal region (Homo sapiens, UniProt Q15046, T52D); test: Immunofluorescence staining of converted IgGs; assay type: cell-based; conditions: T52D-KRS (active mutant, myc tagged KRS)
T4 construct: expressed in transfected cells; host or cells: A549
T4 sequence (Q15046 whole entry T52D): as the sequence (Q15046 whole entry) above, with T52D counted along it
Description: as §1, §2, §3

A549 cells = test: Transwell cell migration assay (laminin); assay type: cell-based, human; conditions: 100 nM or 500 nM, 24 h, laminin-coated Transwell
Description: Cell migration was measured using a 24-well Transwell chamber with polycarbonate membrane (8.0 μm pore size, Costar) as disclosed in the prior art (Park, S. G. et al., Human lysyl-tRNA synthetase is secreted to trigger pro-inflammatory response, Proc. Natl. Acad. Sci. USA 102, 6356-6361 (2005)). In the Transwell chamber, the lower well was coated with 10 μg of laminin (in gelatin) and dried with UV. Thereafter, A549 cells were suspended in serum-free RPIM media, and then placed at a concentration of 1×10^5 cells per well in the upper chamber. The chamber was treated with N3 IgG or human mock IgG (control) at 100 nM or 500 nM, followed by incubation for 24 h. Thereafter, the chamber was washed twice with PBS, and treated with 70% MeOH (in PBS) for 30 min. The chamber was again washed twice with PBS, and treated with Hematoxylin solution for 30 min. The chamber was washed three times with DW, and the membrane in the chamber was cut and mounted on the slide glass.

[3] = tested on: rat KRS N-terminal peptide fragments (rF1-rF5); test: SPR (Biacore T200) of immobilized N3 IgG against rat KRS N-terminal peptide fragments; assay type: binding
Description: In the same manner as the experimental method described in Example 4-1 above, N3 IgG antibody was immobilized on the chip by using an amine coupling kit (GE Healthcare). Then, the peptides shown in Table 4 above dissolved in PBS solution at corresponding concentrations were allowed to flow for 60 s, and PBS was allowed to flow for 5 min. Then, the binding ability was analyzed by Biacore T200 Evaluation software v2.0 (GE Healthcare).

[4] = tested on: monocyte/macrophage infiltration into lung tissues (CD68); test: IHC staining of CD68 in lung tissues of PAH model; assay type: in vivo, rat; conditions: PAH rats, 1 mpk or 10 mpk, 3 weeks
Description: The collected lungs were fixed in paraformaldehyde (PFA) according to the ordinary procedure, and then paraffin-infiltrated and embedded through washing, dehydration, and clearing. The rat lung tissue paraffin blocks were micro-sectioned to a thickness of 6 μm, and slides were manufactured. Thereafter, staining was performed as below. The sample was first treated with xylene for 5 min three times, treated with 100% ethanol, 95% ethanol, 90% ethanol, and 70% ethanol, and DW in that order for 2 min, and washed with PBS for 5 min. After 0.3% H2O2 treatment, the sample was washed with PBS for 5 min twice. The sample was immersed in 0.01 M citrate buffer, heated, and washed with PBS-T (0.03% Tween 20). Thereafter, the sample was blocked (2% BSA & 2% goat serum in PBS) at room temperature for 30 min. The sample was stained with anti-CD68 antibody (1:200, ED1 clone, Abcam) at 4° C. overnight. The sample was washed with PBS-T for 5 min three times, and then treated with polymer-HRP anti-mouse envision kit (DAKO) at 4° C. for 1 h. The sample was washed with PBS-T three times, and then color-developed by the treatment with DAB substrate buffer and DAB chromogen 20. The stained tissue was treated with Mayer's hematoxylin (Sigma) for 1 min, and then treated with 70% ethanol, 90% ethanol, 95% ethanol, and 100% ethanol in that order for 2 min each twice. […]

T1 sequence (Q15046 1-207): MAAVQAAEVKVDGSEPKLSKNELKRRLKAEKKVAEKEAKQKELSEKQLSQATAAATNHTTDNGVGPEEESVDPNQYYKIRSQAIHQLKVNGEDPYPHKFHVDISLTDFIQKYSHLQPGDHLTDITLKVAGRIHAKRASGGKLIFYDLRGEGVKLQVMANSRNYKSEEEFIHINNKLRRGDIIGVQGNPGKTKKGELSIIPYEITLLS

B1: N3 IgG: IgG converted from N3 scFv; VH SEQ ID NO: 49, VL SEQ ID NO: 51; binds KRS N-terminal region (antibody, V domains shown)
VH: EVQLLESGGGLVQPGGSLRLSCAASGFTFSSYDMSWVRQAPGKGLEWVSAISYDNGNTYYADSVKGRFTISRDNSKNTLYLQMNSLRAEDTAVYYSARMALDFDYWGQGTLVTVSS
VL: QSVLTQPPSASGTPGQRVTISCTGSSSNIGSNYVTWYQQLPGTAPKLLIYDNSNRPSGVPDRFSGSKSGTSASLAISGLRSEDEADYYCASWDDSLSAYVFGGGTKLTVL
Kd (KRS 1-207 aa): 83.4 nM | ka (KRS 1-207 aa): 109000 M⁻¹ s⁻¹ | kd (KRS 1-207 aa): 0.009055 s⁻¹ | KRS binding ability (western blotting and immunoprecipitation) (KRS): bound to KRS | binding to extracellularly exposed KRS N-terminal region (immunofluorescence) [1]: favorably bound specifically | binding to extracellularly exposed KRS N-terminal region (immunofluorescence) [2]: favorably bound | inhibition of cell migration (A549 cells): significantly inhibited | relative binding ability, epitope F3 vs F1 (rat) [3]: stronger binding ability to epitope F3 than F1 | binding to rat KRS N-terminal epitopes F1-F5 (SPR) ([3]; F2 and F4 data not shown): bound to epitopes F1, F2, F3, and F4 of human (h), mouse (m), and rat (r) but not epitope F5 | monocyte/macrophage infiltration into lung tissues (CD68 IHC) [4]: explicitly reduced
